According to ChEMBL document CHEMBL2073921, “The human T-type amino acid transporter-1: characterization, gene organization, and chromosomal location” (Genomics, 2002):

Legend:
Settings in all cases: Xenopus laevis; Oocyte
[1] = substrate: N[C@@H](Cc1c[nH]c2ccccc12)C(=O)O
Description: (§1) TP_TRANSPORTER: uptake in Xenopus laevis oocytes

[2] = substrate: N[C@H](Cc1ccccc1)C(=O)O
Description: as §1

[3] = substrate: N[C@@H](Cc1ccccc1)C(=O)O
Description: as §1

[4] = substrate: N[C@@H](Cc1ccc(O)cc1)C(=O)O
Description: as §1

[5] = substrate: N[C@@H](Cc1ccc(O)c(O)c1)C(=O)O
Description: as §1

B1: SLC16A10 protein (Homo sapiens), Q05BR4 (protein)
chain: MVLSQEEPDSARGTSEAQPLGPAPTGAAPPPGPGPSDSPEAAVEKVEVELAGPATAEPHEPPEPPEGGWGWLVMLAAMWCNGSVFGIQNACGVLFVSMLETFGSKDDDKMVFKTAWVGSLSMGMIFFCCPIVSVFTDLFGCRKTAVVGAAVGFVGLMSSSFVSSIEPLYLTYGIIFACGCSFAYQPSLVILGHYFKKRLGLVNGIVTAGSSVFTILLPLLLRVLIDSVGLFYTLRVLCIFMFVLFLAGFTYRPLATSTKDKESGGSGSSLFSRKKFSPPKKNFQFCHLQGDSLCSVGSWNTTCTFWILCALCSLGEYAPSLIMNITI
B1 was tested, and the Km [1] was 452 µM, the Km [2] was 2300 µM and the Km [3] was 740 µM. For the same protein, the Km [4] was 636 µM and the Km [5] was 1210 µM.
